Assay results taken from patent US20040014658A1.

Key:
Assay in all cases: cell-based or functional assay
FGF Receptor 2 = molecular target: FGF Receptor 2
FGF Receptor 1 = molecular target: FGF Receptor 1
FGF Receptor 3 = molecular target: FGF Receptor 3

Measured: JNK activation (Western, anti-active JNK), lowest active concentration

Chain of FGF Receptor 3 (P22607 23-806): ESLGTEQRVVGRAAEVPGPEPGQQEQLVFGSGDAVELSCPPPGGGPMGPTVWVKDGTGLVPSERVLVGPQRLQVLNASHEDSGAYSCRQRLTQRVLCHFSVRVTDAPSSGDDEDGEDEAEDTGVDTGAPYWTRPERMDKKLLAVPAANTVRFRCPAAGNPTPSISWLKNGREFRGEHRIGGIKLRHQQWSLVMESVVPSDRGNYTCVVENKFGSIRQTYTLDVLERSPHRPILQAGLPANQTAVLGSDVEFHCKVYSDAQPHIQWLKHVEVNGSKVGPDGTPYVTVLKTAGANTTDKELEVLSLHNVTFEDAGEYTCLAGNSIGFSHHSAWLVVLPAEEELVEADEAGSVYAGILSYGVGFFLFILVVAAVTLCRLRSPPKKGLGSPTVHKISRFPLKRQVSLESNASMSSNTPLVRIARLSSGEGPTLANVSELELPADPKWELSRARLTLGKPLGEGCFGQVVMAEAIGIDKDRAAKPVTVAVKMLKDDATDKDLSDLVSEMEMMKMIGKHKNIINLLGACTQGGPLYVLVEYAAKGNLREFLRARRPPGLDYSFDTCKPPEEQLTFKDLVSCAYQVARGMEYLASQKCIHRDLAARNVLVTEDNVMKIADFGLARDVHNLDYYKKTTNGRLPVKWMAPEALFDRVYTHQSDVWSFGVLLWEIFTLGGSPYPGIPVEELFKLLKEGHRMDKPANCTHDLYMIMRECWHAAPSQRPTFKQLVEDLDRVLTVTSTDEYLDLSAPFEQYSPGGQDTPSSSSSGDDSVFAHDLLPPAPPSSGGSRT

wild type FGF-9 (ligand)
< 12.5 ng/mL: all assays above
